Target: monomeric human protein of therapeutic interest (antigen of Examples 1-7) (human)
Experiment: competition flow cytometry; control scFv-Fc supernatant preincubated 15 min with 10 nM labeled antigen, then yeast displaying parental scFv added

unrelated scFv-Fc (control) (Fc fusion)
Q2 (% of cells displaying the parental scFv that bind antigen in presence of the competing scFv-Fc): 69.9%
